Experiment [1] concerns the target leafhopper actin (Circulifer haematoceps, Ciha-1 cells) (Circulifer haematoceps (endogenous in Ciha-1)).
For experiment [2] the target is unchanged. The source holds these as a separate data set.

We go through 3 substances from PMC3043095.

With “His6-tagged PGK-FL4 (S. citri PGK amino acids 101 to 412) (from UniProt Q7WTU1 101-412) (domain or fragment)”, the S. citri transmission by infected leafhoppers injected with 0.2 µg PGK-FL4: relative percentage of batches with positive culture (phosphate buffer = 100) (% relative to phosphate buffer control) in experiment [1] came out at 101.
Substance “Spiroplasma citri phosphoglycerate kinase, His6-tagged, full length (from UniProt Q7WTU1 1-412) (enzyme)” came in with an inhibition of S. citri internalization into Ciha-1 cells (gentamicin protection assay) after preincubation of cells with 400 µg/ml His6-tagged PGK (% inhibition of invasion) in experiment [2] of 85. Besides, the S. citri transmission by infected leafhoppers injected with 0.2 µg His6-tagged PGK: relative percentage of batches with positive culture (phosphate buffer = 100) (% relative to phosphate buffer control) in experiment [1] amounted to 51.7.
Consider “His6-tagged PGK-FL5 (S. citri PGK amino acids 49 to 154) (from UniProt Q7WTU1 49-154) (domain or fragment)”, for which, in experiment [2], the reduction of S. citri internalization into Ciha-1 cells (gentamicin protection assay) after preincubation of cells with 50 and 400 µg/ml PGK-FL5 (45% and 80%) (% reduction of internalization) worked out at 80. The substance also came in with a S. citri transmission by infected leafhoppers injected with 0.2 µg PGK-FL5: relative percentage of batches with positive culture (phosphate buffer = 100) (% relative to phosphate buffer control) in experiment [1] of 58.6.
